This is an account of results in patent publication US20100158922A1.

This experiment has as its target recombinant human IFNγ (human) (UniProt P01579). Briefly: cell-based or functional assay.

recombinant human IFNγ (human), sequence (P01579 24-166 limits assumed): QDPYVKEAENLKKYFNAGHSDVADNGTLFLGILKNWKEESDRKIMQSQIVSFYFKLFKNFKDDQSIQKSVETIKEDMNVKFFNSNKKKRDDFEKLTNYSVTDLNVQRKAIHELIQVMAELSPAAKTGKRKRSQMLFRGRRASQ

Take “R&D Systems mouse anti-human IFNγ antibody MAB285”: the MHC II Inhibition Cell-Based Assay IC50 was 0.4 nM.
